Assay results reported in patent publication US20250026827A1 (Alector, published 2025).
Positions count from the first letter of the chain named.

B1: SB-15 (antibody, V domains shown)
VH: QLQLQESGPGLVKPSETLSLTCTVSGGSISSNSYYWGWIRQPPGKGLEWIGSIYYSGSTYYNPSLKSRVTISVDTSKNQFSLKLSSVTAADTAVYYCAREVGAPPSYPFDIWGQGTMVTVSS
VL: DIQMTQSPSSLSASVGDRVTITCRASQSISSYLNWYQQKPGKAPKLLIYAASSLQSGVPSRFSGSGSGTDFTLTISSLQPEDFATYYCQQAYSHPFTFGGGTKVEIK
notes: IgG
B2: SB-39 (antibody, V domains shown)
VH: QVQLQESGPGLVKPSETLSLTCAVSGYSISSGYYWAWIRQPPGKGLEWIGSIYHSGSTYYNPSLKSRVTISVDTSKNQFSLKLSSVTAADTAVYYCARGGSNYGDYGRFDYWGQGTLVTVSS
VL: DIQMTQSPSSLSASVGDRVTITCRASQSISSYLNWYQQKPGKAPKLLIYGASSLQSGVPSRFSGSGSGTDFTLTISSLQPEDFATYYCQQSYDFPLTFGGGTKVEIK
notes: IgG
B3: SB-19 (antibody, V domains shown)
VH: QVQLVQSGAEVKKPGSSVKVSCKASGGTFSSYAISWVRQAPGQGLEWMGGIIPIFGTANYAQKFQGRVTITADESTSTAYMELSSLRSEDTAVYYCARDGGGGYAYEYFQHWGQGTLVTVSS
VL: not shown
notes: IgG
B4: SB-32 (antibody, V domains shown)
VH: QVQLQESGPGLVKPSETLSLTCTVSGGSISSYYWSWIRQPPGKGLEWIGYIYSSGSTNYNPSLKSRVTISVDTSKNQFSLKLSSVTAADTAVYYCARGDSSSGGLDLWGRGTLVTVSS
VL: not shown
notes: IgG
B5: SB-41 (antibody, V domains shown)
VH: QLQLQESGPGLVKPSETLSLTCTVSGGSISSSSYYWGWIRQPPGKGLEWIGSIYYSGSTYYNPSLKSRVTISVDTSKNQFSLKLSSVTAADTAVYYCARVGQYPIYGMDVWGQGTTVTVSS
VL: DIQMTQSPSSLSASVGDRVTITCQASQDITNYLNWYQQKPGKAPKLLIYDASNLETGVPSRFSGSGSGTDFTFTISSLQPEDIATYYCQQADNFPYTFGGGTKVEIK
notes: IgG
B6: SB-49 (antibody, V domains shown)
VH: QLQLQESGPGLVKPSETLSLTCTVSGGSISSSDYYWGWIRQPPGKGLEWIGSIYYSGSTYYNPSLKSRVTISVDTSKNQFSLKLSSVTAADTAVYYCARGPTGYKDKWRYYYGMDVWGQGTTVTVSS
VL: B5 VL with A91Y, D92F, N93H, F94P, Y96L
notes: IgG
B7: SB-6 (antibody, V domains shown)
VH: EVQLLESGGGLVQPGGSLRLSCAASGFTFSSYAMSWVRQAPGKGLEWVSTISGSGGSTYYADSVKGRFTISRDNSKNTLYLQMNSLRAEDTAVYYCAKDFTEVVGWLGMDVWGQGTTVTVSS
VL: EIVLTQSPGTLSLSPGERATLSCRASQSVSSSYLAWYQQKPGQAPRLLIYGASSRATGIPDRFSGSGSGTDFTLTISRLEPEDFAVYYCQQSGHLPITFGGGTKVEIK
notes: IgG
B8: SB-30 (antibody, V domains shown)
VH: QVQLQESGPGLVKPSQTLSLTCTVSGGSISSGGYYWSWIRQHPGKGLEWIGYIYYSGSTVYNPSLKSRVTISVDTSKNQFSLKLSSVTAADTAVYYCAREGPGYPSYFDPWGQGTLVTVSS
VL: B7 VL with Y33F, S92F, G93L, H94S, L95S, I97W, I107N, K108Q
notes: IgG
B9: SB-26 (antibody, V domains shown)
VH: QVQLVQSGAEVKKPGSSVKVSCKASGGTFSSYAISWVRQAPGQGLEWMGGIIPIFGTANYAQKFQGRVTITADESTSTAYMELSSLRSEDTAVYYCARDGSAGRQEHGMDVWGQGTTVTVSS
VL: not shown
notes: IgG
B10: SB-21 (antibody, V domains shown)
VH: QVQLVQSGAEVKKPGASVKVSCKASGYTFTSNGISWVRQAPGQGLEWMGWISAYNGNTNYAQKLQGRVTMTTDTSTSTAYMELRSLRSDDTAVYYCARVGNMDQEYFDLWGRGTLVTVSS
VL: not shown
notes: IgG
B11: SB-17 (antibody, V domains shown)
VH: QVQLVQSGAEVKKPGASVKVSCKASGYTFTSYGISWVRQAPGQGLEWMGWISAYNGNTNYAQKLQGRVTMTTDTSTSTAYMELRSLRSDDTAVYYCARGPLLYGDYHVRYGMDVWGQGTTVTVSS
VL: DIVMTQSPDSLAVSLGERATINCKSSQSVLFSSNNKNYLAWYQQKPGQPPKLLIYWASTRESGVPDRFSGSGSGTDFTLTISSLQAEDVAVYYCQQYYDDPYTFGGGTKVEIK
notes: IgG

How the values were obtained:
[1] = target: T1, mouse SIRPβ1 on CHO cells (mouse); assay: flow cytometry;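 as to FOB: antibodies tested at 1 µg/ml for 30 min on ice against receptor-expressing cells, detected with a PE-labelled secondary antibody, read as mean fluorescence intensity relative to background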
T1 construct: Whole entry
T1 chain: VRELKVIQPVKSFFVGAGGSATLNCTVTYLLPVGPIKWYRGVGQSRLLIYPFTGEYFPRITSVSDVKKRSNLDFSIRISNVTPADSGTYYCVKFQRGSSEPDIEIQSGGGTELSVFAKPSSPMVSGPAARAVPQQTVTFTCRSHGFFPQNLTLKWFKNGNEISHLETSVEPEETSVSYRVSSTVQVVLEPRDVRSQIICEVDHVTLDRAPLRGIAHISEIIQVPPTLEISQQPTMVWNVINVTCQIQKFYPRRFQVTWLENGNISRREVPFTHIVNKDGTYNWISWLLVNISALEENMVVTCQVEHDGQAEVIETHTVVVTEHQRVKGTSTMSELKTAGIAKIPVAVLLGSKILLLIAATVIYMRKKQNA

human SIRPα on cells [2] = target: T2, human SIRPα on cells (human, UniProt P78324 31-504); assay: flow cytometry;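 as to FOB: antibodies tested at 1 µg/ml for 30 min on ice against receptor-expressing cells, detected with a PE-labelled secondary antibody, read as mean fluorescence intensity relative to background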
T2 construct: Whole entry

mouse SIRPα on cells [3] = target: T3, mouse SIRPα on cells (mouse, UniProt P97797 32-513); assay: flow cytometry;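 as to FOB: antibodies tested at 1 µg/ml for 30 min on ice against receptor-expressing cells, detected with a PE-labelled secondary antibody, read as mean fluorescence intensity relative to background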
T3 construct: whole, on cells
T3 sequence (looked up): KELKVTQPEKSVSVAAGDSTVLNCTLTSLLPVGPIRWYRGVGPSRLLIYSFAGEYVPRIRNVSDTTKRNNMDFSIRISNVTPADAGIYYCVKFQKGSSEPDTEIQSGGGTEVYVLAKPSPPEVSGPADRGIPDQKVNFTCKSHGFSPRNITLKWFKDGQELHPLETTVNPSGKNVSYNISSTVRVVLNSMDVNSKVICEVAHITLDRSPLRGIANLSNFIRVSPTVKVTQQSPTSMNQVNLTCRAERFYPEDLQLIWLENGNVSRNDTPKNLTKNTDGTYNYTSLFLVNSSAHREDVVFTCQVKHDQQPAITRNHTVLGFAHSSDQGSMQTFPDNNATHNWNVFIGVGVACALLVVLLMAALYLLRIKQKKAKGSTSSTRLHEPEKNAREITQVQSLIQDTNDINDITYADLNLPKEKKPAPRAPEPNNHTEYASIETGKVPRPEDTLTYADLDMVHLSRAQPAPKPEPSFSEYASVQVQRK

[4] = target: T4, human SIRPβ1 domain 1 (D1) Fc fusion (human, UniProt O00241 30-148); assay: Octet, IgG avid
T4 construct: Made in HEK293/T cells with a heterologous signal peptide; also called Human SIRPβ1 D1-Fc; Human SIRPβ1-Fc; not shown: C-terminal human IgG1 Fc

[5] = target: T1, mouse SIRPβ1 on CHO cells; assay: flow cytometry;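 as to FOB: antibodies tested at 1 µg/ml for 30 min on ice against receptor-expressing cells, detected with a PE-labelled secondary antibody, read as mean fluorescence intensity relative to background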
[6] = target: T5, human SIRPβ1 isoform 1 on cells (human, UniProt O00241 30-398); assay: flow cytometry
T5 construct: On CHO cells (low level), on BWZ/BW5147.G.1.4 cells (reporter cells co-express human DAP12) or on primary human myeloid cells; also called huSIRPβ1; BWZ-huSIRPβ1

human SIRPα on cells [7] = target: T2, human SIRPα on cells; assay: flow cytometry; remark: listed apart in the source
mouse SIRPα on cells [8] = target: T3, mouse SIRPα on cells; assay: flow cytometry; remark: listed apart in the source
mouse SIRPα D1-Fc = target: T6, mouse SIRPα D1-Fc (mouse, UniProt P97797 32-150, limits assumed); assay: Octet
T6 construct: domain: D1
T6 sequence (looked up): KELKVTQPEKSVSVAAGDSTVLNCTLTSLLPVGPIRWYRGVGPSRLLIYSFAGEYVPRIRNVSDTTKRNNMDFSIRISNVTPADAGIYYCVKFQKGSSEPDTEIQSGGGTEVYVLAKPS

[9] = target: T7, human SIRPα domain 1 (D1) Fc fusion (human, UniProt P78324 32-149); assay: Octet
T7 construct: also called human SIRPα D1-Fc; Human SIRPα Fc; not shown: C-terminal human IgG1 Fc

T4 sequence (O00241 30-148 limits assumed): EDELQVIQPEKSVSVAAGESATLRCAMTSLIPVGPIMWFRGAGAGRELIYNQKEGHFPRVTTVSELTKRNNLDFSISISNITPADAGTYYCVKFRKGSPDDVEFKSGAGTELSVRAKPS
T5 sequence (O00241 30-398): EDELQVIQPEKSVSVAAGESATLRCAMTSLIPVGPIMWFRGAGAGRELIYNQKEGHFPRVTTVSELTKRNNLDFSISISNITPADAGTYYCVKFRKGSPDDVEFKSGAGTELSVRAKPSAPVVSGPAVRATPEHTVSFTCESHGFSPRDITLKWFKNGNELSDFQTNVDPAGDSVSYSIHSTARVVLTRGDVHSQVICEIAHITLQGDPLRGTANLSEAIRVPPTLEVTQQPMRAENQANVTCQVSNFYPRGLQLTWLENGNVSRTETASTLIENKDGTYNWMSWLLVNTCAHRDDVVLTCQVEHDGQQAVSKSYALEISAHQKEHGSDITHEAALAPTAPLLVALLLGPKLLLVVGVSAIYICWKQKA

| Binder | binding result [1] | binding result (human SIRPα on cells [2]) | binding result (mouse SIRPα on cells [3]) | Kd [4] | FOB [5] | FOB [6] | FOB (human SIRPα on cells [7]) | FOB (mouse SIRPα on cells [8]) | binding result (mouse SIRPα D1-Fc) | binding result [9] |
| --- | --- | --- | --- | --- | --- | --- | --- | --- | --- | --- |
| B1 | no binding (tested: 1 ug/ml) | no binding (tested: 1 ug/ml) | no binding (tested: 1 ug/ml) | 3.45 nM | 1.3 fold over background | 8 fold over background | 2.2 fold over background | 1.4 fold over background | no binding (tested: 100 nM) | no binding (tested: 100 nM) |
| B2 | no binding (tested: 1 ug/ml) | – | no binding (tested: 1 ug/ml) | 21.4 nM | 1.4 fold over background | 5 fold over background | 2 fold over background | 1.1 fold over background | no binding (tested: 100 nM) | – |
| B3 | no binding (tested: 1 ug/ml) | no binding (tested: 1 ug/ml) | no binding (tested: 1 ug/ml) | 7.41 nM | 1.3 fold over background | 1.8 fold over background | 2.2 fold over background | 0.9 fold over background | no binding (tested: 100 nM) | no binding (tested: 100 nM) |
| B4 | no binding (tested: 1 ug/ml) | – | no binding (tested: 1 ug/ml) | 7.13 nM | 1.2 fold over background | 1.5 fold over background | 2.2 fold over background | 1.2 fold over background | no binding (tested: 100 nM) | – |
| B5 | no binding (tested: 1 ug/ml) | – | no binding (tested: 1 ug/ml) | 10.3 nM | 1.3 fold over background | 1.7 fold over background | 2.2 fold over background | 1.7 fold over background | no binding (tested: 100 nM) | – |
| B6 | no binding (tested: 1 ug/ml) | – | no binding (tested: 1 ug/ml) | 4.39 nM | 1.2 fold over background | 3.4 fold over background | 2.7 fold over background | 1.7 fold over background | no binding (tested: 100 nM) | – |
| B7 | no binding (tested: 1 ug/ml) | no binding (tested: 1 ug/ml) | no binding (tested: 1 ug/ml) | 1.3 nM | 1.2 fold over background | 4.3 fold over background | 1.2 fold over background | 1 fold over background | no binding (tested: 100 nM) | no binding (tested: 100 nM) |
| B8 | no binding (tested: 1 ug/ml) | – | no binding (tested: 1 ug/ml) | 7.87 nM | 1.4 fold over background | 1.7 fold over background | 2.1 fold over background | 1.5 fold over background | no binding (tested: 100 nM) | – |
| B9 | no binding (tested: 1 ug/ml) | no binding (tested: 1 ug/ml) | no binding (tested: 1 ug/ml) | 6.17 nM | 1.3 fold over background | 2 fold over background | 2.1 fold over background | 1.2 fold over background | no binding (tested: 100 nM) | no binding (tested: 100 nM) |
| B10 | no binding (tested: 1 ug/ml) | no binding (tested: 1 ug/ml) | no binding (tested: 1 ug/ml) | 5.86 nM | 1.3 fold over background | 1.9 fold over background | 2 fold over background | 1.2 fold over background | no binding (tested: 100 nM) | no binding (tested: 100 nM) |
| B11 | no binding (tested: 1 ug/ml) | no binding (tested: 1 ug/ml) | no binding (tested: 1 ug/ml) | 3.32 nM | 1.3 fold over background | 2.8 fold over background | 2.5 fold over background | 1.6 fold over background | no binding (tested: 100 nM) | no binding (tested: 100 nM) |
